According to US20220213193A1 (BROWN UNIVERSITY, published 2022):

Molecular target: T1, recombinant human (rh) CHI3L1 (human, UniProt P36222 22-383)
T1 construct: also called rhCHI311; human CHI3L1
Test: competitive ELISA on recombinant antigen

T1 sequence (P36222 22-383 limits assumed): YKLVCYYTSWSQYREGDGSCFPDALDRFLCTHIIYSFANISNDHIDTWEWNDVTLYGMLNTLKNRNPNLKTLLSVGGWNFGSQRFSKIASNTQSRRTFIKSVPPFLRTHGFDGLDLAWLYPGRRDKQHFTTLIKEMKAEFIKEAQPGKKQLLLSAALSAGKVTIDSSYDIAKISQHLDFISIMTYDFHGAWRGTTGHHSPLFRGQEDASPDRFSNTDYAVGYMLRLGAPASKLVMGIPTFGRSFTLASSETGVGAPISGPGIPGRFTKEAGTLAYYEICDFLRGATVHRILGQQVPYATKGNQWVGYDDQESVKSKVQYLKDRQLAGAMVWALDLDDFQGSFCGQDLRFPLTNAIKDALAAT

B1: anti-human CHI3L1 antibody FRG (antibody, V domains shown)
VH: QIQLVQSGPELKKPGETVKISCKASGYTFTNYGMNWVKQAPGKGLKWMGWINTYTGEPTYADDFKGRFAFSLETSASTAYLQINNLRNEDMSTYFCARLGYGKFYVMDYWGQGTSVTVSS
VL: DVVMTQTPLSLPVSLGDQASISCRSSQSLVHSNGNTYLHWYLQKPGQSPKLLIYKVSNRFSGVPDRFSGSGSGTDFTLKISRVEAEDLGVYFCSQSTHVTWTFGGGTKLEIK
notes: also called anti-CHI3L1; α-CHI3L1
  Kd: ~1 nM
